Six molecules from patent US20240309360A1, “TRANS-ACTIVATORS AND METHODS AND USE THEREOF” (THE GOVERNING COUNCIL OF THE UNIVERSITY OF TORONTO, priority 2021, published 2024) can be followed below.

In experiment [1] the test system is serum response element reporter in NIH3T3 cells. Put plainly: SRF reporter assay (SRE-Firefly luciferase). The experiment is classed as cell-based, mouse. The following applies: NIH3T3 fibroblasts, 3×FLAG tagged constructs, no cofactors. The procedure: SRF functions together with either ternary complex factors (TCFs; e.g. ELK1) or myocardin-related transcription factors (MRTFs; e.g. MAL) to regulate target gene expression (Buchwalter et al., 2004; Olson and Nordheim, 2010). […] To test this further, the activity of different constructs was assayed in NIH3T3 fibroblasts using a luciferase-based serum response element reporter (Vartiainen et al., 2007).
SRF reporter assay. 30,000 NIH-3T3 cells on 24-well plates were transfected with 8 ng SRF reporter (p3DA.luc), 20 ng reference reporter (pcDNA3.1-Nanoluc-3×FLAG-V5) and 50 ng 3×FLAG tagged constructs (Addgene #87063). Transfection was carried out using Lipofectamine 3000 reagent (Thermo Fisher Scientific, L3000001) according to the manufacturer's protocols. Luciferase constructs were a kind gift from Dr. Maria Vartiainen (University of Helsinki). Cells were maintained in low-serum media (0.5% BCS) for 18 hours and stimulated for 7 hours (15% BCS), after which luciferase activity was measured. Firefly luciferase was normalized to Renilla luciferase activity using data from four independent transfections.

Experiment [2] concerns NIH3T3 cells gene expression. Briefly: RNA sequencing of NIH-3T3 cells with doxycycline-inducible EGFP-tagged constructs. The experiment is classed as cell-based, mouse. As to conditions: GFP-tagged. The text has this: The SRF/TCF pathway, which is regulated by MAP kinase signaling, regulates the expression of immediate-early genes (Gualdrini et al., 2016), whereas the actin-Rho signaling dependent SRF/MRTF pathway targets genes involved in cell motility and adhesion (Miralles et al., 2003). To test if SRF-C3orf62 can regulate target genes of both pathways, stable doxycycline-inducible NIH3T3 cell lines stably expressing SRF, C3orf62, SRF-C3orf62 and Nanoluc fused to GFP were generated. Transgene expression was induced with doxycycline for 24 hours and changes in gene expression were analyzed by RNA-seq. […] These signatures are consistent with the oncogenic nature of the SRF-C3orf62 fusion. […] In contrast, many well-characterized immediate-early target genes of SRF/TCF such as FOS, EGR1, or EGR2 were not affected by ectopic SRF-C3orf62 expression (FIG. 5H).
RNA sequencing and analysis. NIH-3T3 cells with stable integrations of SRF, C3orf62, SRF-C3orf62 or Nanoluc tagged at the C-terminus with EGFP were induced with 1 μg/mL doxycycline for 24 hours. […] Reads were aligned to the Gencode mouse primary assembly (GRCm39) with STAR aligner v2.7.8a. […] Changes in gene expression compared to cells expressing Nanoluc-EGFP were quantified using the edgeR package (Robinson et al., 2010).

Experiment [3] concerns EGFP reporter (7×TetO array, basal CMV promoter) in HEK293T reporter cell line. Briefly: Arrayed recruitment assay, PYL1 fusions individually recruited to reporter via ABI1-dCas9 with ABA. The experiment is classed as cell-based, human. As to conditions: PYL1 fusion, ABA 48 hours, flow cytometry. The text has this:
Treatment of cells with abscisic acid (ABA) induces an interaction between ABI1 and PYL1, thereby recruiting the potential transcriptional activator to a specific genomic locus defined by the guide RNA (gRNA). As a reporter, a HEK293T cell line that contains a stably integrated construct with a 7×TetO array and a basal CMV promoter driving the expression of EGFP was used (Gao et al., 2016). A monoclonal cell line that expresses ABI1-dCas9 and a single gRNA targeting TetO was generated by lentiviral infection.
Arrayed recruitment assays. Reporter cells stably co-expressing ABI-dCas9 and TetO gRNA were seeded either on 48-well or 96-well plates (Sarstedt) to reach 50-70% confluency on the day of transfection. 150 ng of each construct to be tested was transfected with polyethylenimine (PEI) at a ratio of 0.6 μl reagent. The day after transfection, recruitment was induced by treatment with ABA (100 μM). […] Inhibitors were dissolved in DMSO to a stock concentration of 10 mM. The final concentrations used were 100 nM for flavopiridol, 300 nM for JQ1, 1 μM for A-485, 2.5 μM for CX-4945 and 3 μM for AZ191. All inhibitors were a kind gift from the Structural Genomics Consortium (SGC). 48 hours after induction, cells were dissociated and resuspended in flow buffer using a liquid handing robot (TECAN) and analyzed by LSR Fortessa (BD). Cells were gated on high EBFP2 and RFP as a measure of gRNA and transfection control, respectively. Flow cytometry data was analyzed using FlowJo (v10).

B1: C3orf62: full-length C3orf62 protein (protein)
chain: MHYIKTWSLLGEMSEKLRRCRKELTAAIDRAFEGVSYSQECTGQQRLELSAAPLSFSLPVHRLLCRRHPLAACSSAAPFAAVPCAPENENPAFATNHAPVNAKPHALCPERKPLTSKENVLMHSSILAPERESWRTAGEGENWRKENLRKDMERDLKADSNMPLNNSSQEVTKDLLDMIDHTSIRTIEELAGKIEFENELNHMCGHCQDSPFKEEAWALLMDKSPQKATDADPGSLKQAFDDHNIVETVLDLEEDYNVMTSFKYQIE
modifications: left off: things letters cannot carry; small tags and cut ends
notes: full-length C3orf62 protein
As for B1, in experiment [1], the “activation of serum response element luciferase reporter” value is recorded as “did not activate the reporter”. In addition, the “effects on the transcriptome compared to Nanoluc” value in experiment [2] was “very limited or no effects on the transcriptome”.

B2: C3orf62-Cterm: C-terminal fragment of C3orf62 fused to SRF in the fusion (protein)
chain: AAVPCAPENENPAFATNHAPVNAKPHALCPERKPLTSKENVLMHSSILAPERESWRTAGEGENWRKENLRKDMERDLKADSNMPLNNSSQEVTKDLLDMIDHTSIRTIEELAGKIEFENELNHMCGHCQDSPFKEEAWALLMDKSPQKATDADPGSLKQAFDDHNIVETVLDLEEDYNVMTSFKYQIE
modifications: left off: things letters cannot carry; small tags and cut ends
notes: C-terminal fragment of C3orf62 fused to SRF in the fusion
As for B2, in experiment [3], the “activation of the EGFP reporter when individually tested” value (“activation of the EGFP reporter” for short) is recorded as “strongly activated the GFP reporter”.

B3: CBX6: CBX-C domain of CBX6 (protein, listed as Homo sapiens)
chain: GASSEPEAGDWRPEMSPCSNVVVTDVTSNLLTVTIKEFCNPEDFEKVAAGVAGAAGGGGSIGASK
Consider B3, for which the “activation of the EGFP reporter” value in experiment [3] is given as “activated the reporter weakly”.

B4: RYBP: YAF2_RYBP domain of RYBP (protein, listed as Homo sapiens)
chain: IQSANATTKTSETNHTSRPRLKNVDRSTAQQLAVTVGNVTVIITDFKEKTRSSSTSSSTVTSSAGSEQQNQS
With B4, in experiment [3], the “activation of the EGFP reporter” value was “robustly activated the reporter”.

B5: SPDYC: Spy1/RINGO family protein (protein, listed as Homo sapiens)
chain: MLWAIPELGSPCPISISYEMSDSQDPTTSPVVTTQVELGGCSRQGGGNGFLRFRQHQEVQAFLSLLEDSFVQEFLSKDPCFQISDKYLLAMVLVYFQRAHLKLSEYTHSSLFLALYLANDMEEDLEGPKCEIFPWALGKDWCLRVGKFLHQRDKLWARMGFRAVVSRQCCEEVMAKEPFHWAWTRDRRPHHGGVQRVCPQVPVRLPRGPGLSPPHCSPCGLPQHCSSHLLKPVSSKCPSLTSECHRPPSQNYLSRVKNAWGGDFLIVLPPQMQLEPGTYSLRIFPKPPARPGH
Consider B5, for which the “activation of the EGFP reporter” value in experiment [3] is “inactive in the recruitment assay”.

B6: SRF: Serum Response Factor (protein)
chain: MLPTQAGAAAALGRGSALGGSLNRTPTGRPGGGGGTRGANGGRVPGNGAGLGPGRLEREAAAAAATTPAPTAGALYSGSEGDSESGEEEELGAERRGLKRSLSEMEIGMVVGGPEASAAATGGYGPVSGAVSGAKPGKKTRGRVKIKMEFIDNKLRRYTTFSKRKTGIMKKAYELSTLTGTQVLLLVASETGHVYTFATRKLQPMITSETGKALIQTCLNSPDSPPRSDPTTDQRMSATGFEETDLTYQVSESDSSGETKDTLKPAFTVTNLPGTTSTIQTAPSTSTTMQVSSGPSFPITNYLAPVSASVSPSAVSSANGTVLKSTGSGPVSSGGLMQLPTSFTLMPGGAVAQQVPVQAIQVHQAPQQASPSRDSSTDLTQTSSSGTVTLPATIMTSSVPTTVGGHMMYPSPHAVMYAPTSGLGDGSLTVLNAFSQAPSTMQVSHSQVQEPGGVPQVFLTASSGTVQIPVSAVQLHQMAVIGQQAGSSSNLTELQVVNLDTAHSTKSE
modifications: left off: things letters cannot carry; small tags and cut ends
notes: Serum Response Factor
On to B6, for which the “activation of serum response element luciferase reporter” value in experiment [1] is on record as “did not activate the reporter”. Further, the “effects on the transcriptome compared to Nanoluc” value in experiment [2] is given as “very limited or no effects on the transcriptome”.
